Assays:
[1] = system: N[C@@H](CCSC[C@@H](O)C(=O)[C@@H](O)CO)C(=O)O; test: homocysteine release, DTNB assay; type: biochemical, Vibrio campbellii; details: Co(II) enzyme
[2] = system: N[C@@H](CCSC[C@@H](O)C(=O)[C@@H](O)CO)C(=O)O; test: purified protein; details: Co(II) enzyme
Cys83 = Cys83 (UniProt position 83, ISPMGCRTGFY); details: free enzyme (no substrate or ligand bound); metal form not stated; cited from earlier work
[3] = substrate: N[C@@H](CCSC[C@@H](O)C(=O)[C@@H](O)CO)C(=O)O; test: homocysteine release, DTNB assay; type: biochemical, Bacillus subtilis; details: Co(II) enzyme

“VhLuxS (Co-VhLuxS) (Vibrio campbellii ATCC BAA-1116; C83A)” gave a Km [1] of 700 ± 120 µM, a kcat [1] of 0.022 ± 0.002 s⁻¹ and a kcat/Km [1] of 31 M⁻¹ s⁻¹.

With “VhLuxS (Co-VhLuxS) (Vibrio campbellii ATCC BAA-1116; S6A)” the Km [1] was 40 ± 3 µM, the kcat [1] was 0.14 ± 0.01 s⁻¹ and the kcat/Km [1] was 3400 M⁻¹ s⁻¹.

Molecule “VhLuxS (Co-VhLuxS) (Vibrio campbellii ATCC BAA-1116; R39M)” has a Km [1] of 150 ± 20 µM, a kcat [1] of 0.016 ± 0.001 s⁻¹ and a kcat/Km [1] of 110 M⁻¹ s⁻¹.

“VhLuxS (Co-VhLuxS) (Vibrio campbellii ATCC BAA-1116; E57D)” showed a Km [1] of 730 ± 120 µM, a kcat [1] of 0.026 ± 0.003 s⁻¹ and a kcat/Km [1] of 36 M⁻¹ s⁻¹.

In the case of “VhLuxS (Co-VhLuxS) (Vibrio campbellii ATCC BAA-1116)”, the Km [2] is reported as 27 ± 2 µM, the kcat [2] is reported as 0.64 ± 0.02 s⁻¹ and the kcat/Km [2] is reported as 24000 M⁻¹ s⁻¹.

In the case of “S-ribosylhomocysteinase (LuxS), EcLuxS (Escherichia coli)”, the pKa (Cys83) is listed as <6.

For “VhLuxS (Co-VhLuxS) (Vibrio campbellii ATCC BAA-1116; H11Q)”, the Km [1] was 520 ± 60 µM, the kcat [1] was 0.024 ± 0.002 s⁻¹ and the kcat/Km [1] was 47 M⁻¹ s⁻¹.

Work on “VhLuxS (Co-VhLuxS) (Vibrio campbellii ATCC BAA-1116; E57A)” yielded a Km [1] of 98 ± 13 µM, a kcat [1] of 0.012 ± 0.001 s⁻¹ and a kcat/Km [1] of 120 M⁻¹ s⁻¹.

B1: BsLuxS (Co-BsLuxS) (Bacillus subtilis subsp. subtilis str. 168) (protein)
chain: MPSVESFELDHNAVVAPYVRHCGVHKVGTDGVVNKFDIRFCQPNKQAMKPDTIHTLEHLLAFTIRSHAEKYDHFDIIDISPMGCQTGYYLVVSGEPTSAEIVDLLEDTMKEAVEITEIPAANEKQCGQAKLHDLEGAKRLMRFWLSQDKEELLKVFG
In the case of B1, the Km [3] is reported as 3.6 ± 0.1 µM, the kcat [3] is reported as 0.038 ± 0.001 s⁻¹ and the kcat/Km [3] is reported as 11000 M⁻¹ s⁻¹.

Reference: paper PMC2654206
